Data published in patent US20210087291A1 (Hoffmann-La Roche, published 2021).
Substitutions are numbered along the chain they refer to.

B1: 19H3 IgG (antibody, V domains shown)
VH: QVQLVQSGAEVKKPGASVKVSCKASGYTFTSYYMHWVRQAPGQGLEWMGIINPSGGSTSYAQKFQGRVTMTRDTSTSTVYMELSSLRSEDTAVYYCARTGWSRWGYMDYWGQGTLVTVSS
VL: QAVVTQEPSLTVSPGGTVTLTCGSSTGAVTTSNYANWVQEKPGQAFRGLIGGTNKRAPGTPARFSGSLLGGKAALTLSGAQPEDEAEYYCALWYSNLWVFGGGTKLTVL
notes: human IgG1
B2: 20H7 IgG (antibody, V domains shown)
VH: B1 VH with T99V, S102Y
VL: B1 VL
notes: human IgG1

Key:
[1] = target: T1, human FolR1 ECD-AcTev-Fcknob-Avi tag + Fc hole, biotinylated monomeric Fc fusion (human, UniProt P0DOX5 223-449 = IgG part); experiment: SPR, IgG single injection
T1 construct: also called huFolR1; huFolR1-Fc

[2] = target: T2, cynomolgus FolR1 ECD-AcTev-Fcknob-Avi tag + Fc hole, biotinylated monomeric Fc fusion (cynomolgus, UniProt P0DOX5 223-449 = IgG part); experiment: SPR, IgG single injection
T2 construct: also called cyFolR1; cyno FolR1-Fc

[3] = target: T3, human FolR3 ECD-AcTev-Fcknob-Avi tag + Fc hole, biotinylated monomeric Fc fusion (human, UniProt P0DOX5 223-449 = IgG part); experiment: SPR, IgG single injection
T3 construct: also called huFolR3; FolR3-Fc

[4] = target: T4, human FolR2 ECD-AcTev-Fcknob-Avi tag + Fc hole, biotinylated monomeric Fc fusion (human, UniProt P0DOX5 223-449 = IgG part); experiment: SPR, IgG single injection
T4 construct: also called huFolR2; FolR2-Fc

human FolR1 on cells = target: T5, human FolR1 on cells (human, UniProt P15328 25-234); experiment: flow cytometry on HeLa cells (human FolR1), fluorescently labeled anti-human secondary antibody
T5 construct: also called FolR1 on HeLa, SKOV3, HT-29 tumor cells; HEK cells transfected with human FolR1
T5 sequence (P15328 25-234 limits assumed): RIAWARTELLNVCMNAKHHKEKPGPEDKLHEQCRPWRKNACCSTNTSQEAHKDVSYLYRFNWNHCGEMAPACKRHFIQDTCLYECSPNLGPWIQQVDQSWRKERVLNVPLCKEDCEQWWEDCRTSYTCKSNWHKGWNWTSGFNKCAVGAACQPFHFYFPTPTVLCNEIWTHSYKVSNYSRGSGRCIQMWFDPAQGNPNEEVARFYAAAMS
Experimental: Binding of newly generated FolR1 binders to FolR1 expressed on HeLa cells were determined by flow cytometry. Bound antibodies were detected with a fluorescently labeled anti-human secondary antibody.
The identified binders were converted into a human IgG1 format and binding to FolR1 high expressing HeLa cells was addressed.

[5] = target: T6, murine FolR1 ECD-AcTev-Fcknob-Avitag + Fc hole, biotinylated monomeric Fc fusion (murine, UniProt P0DOX5 223-449 = IgG part); experiment: SPR, apparent KD, bivalent binding, 2.3 uM folate in running buffer
T6 construct: also called muFolR1; murine FolR1-Fc
Experimental: Binding of FolR1 binders as IgG or in the T-cell bispecific format to different recombinant folate receptors (human FolR1, 2 and 3, murine FolR1 and cynomolgus FolR1; all as Fc fusions) was assessed by surface plasmon resonance (SPR).
Recombinant biotinylated monomeric Fc fusions of human, cynomolgus and murine Folate Receptor 1 (FolR1-Fc) were directly coupled on a SA chip using the standard coupling instruction (Biacore, Freiburg/Germany). The immobilization level was about 300-400 RU. The anti-FolR1 IgGs or T cell bispecifics were passed at a concentration range from 2.1 to 500 nM with a flow of 30 μL/minutes through the flow cells over 180 seconds. The dissociation was monitored for 600 seconds. Bulk refractive index differences were corrected for by subtracting the response obtained on reference flow cell immobilized with recombinant biotinylated IL2 receptor Fc fusion. […] The binding curves resulting from the bivalent binding of the IgGs or T cell bispecifics were approximated to a 1:1 Langmuir binding and fitted with that model (which is not correct, but gives an idea of the avidity). The apparent avidity constants for the interactions were derived from the rate constants of the fitting using the Bia Evaluation software (GE Healthcare).

[6] = target: T6, murine FolR1 ECD-AcTev-Fcknob-Avitag + …; experiment: SPR, 500 nM IgG single injection

| Binder | binding result [1] | binding result [2] | binding result [3] | binding result [4] | binding result (human FolR1 on cells) | Kd [5] [nM] | binding result [6] |
| --- | --- | --- | --- | --- | --- | --- | --- |
| B1 | no binding (tested: 500 nM) | no binding (tested: 500 nM) | no binding (tested: 500 nM) | no binding (tested: 500 nM) | binds | 1.55 | – |
| B2 | – | – | no binding (tested: 500 nM) | no binding (tested: 500 nM) | – | – | binds |
